From paper doi:10.1101/2025.01.22.634233 come the findings set out here.

Test in all cases: fluorescence polarisation
(Polarisation of emitted light reports the rotation of a fluorescent probe.)

The target in experiment [1] is pS5-(CTD)2 peptide, 5,6-FAM-labelled.
Experiment [2] deals with non-phosphorylated (CTD)2 peptide, 5,6-FAM-labelled.
Experiment [3] deals with pY1pS5-(CTD)2 peptide, 5,6-FAM-labelled.

“BRCA1 BRCT^S1655F,K1702M (from UniProt P38398 1646-1859) (domain or fragment)”: the Kd (in general, the constant that tells how readily two partners part at equilibrium) in experiment [1] came to 895 µM.
Consider “BRCA1 BRCT (BRCA1^1646-1859), wild type (from UniProt P38398 1646-1859) (domain or fragment)”, for which the figures for the equilibrium dissociation constant (Kd) in experiment [2] and in experiment [3] were 948 µM and 184 µM, respectively.
On to “BRCA1 BRCT R1699L (from UniProt P38398 1646-1859) (domain or fragment)”, for which the Kd in experiment [1] stood at 413 µM.
